Source: patent US8703915B2, “Mutant proteins and methods for producing them” (Heptares Therapeutics Limited, priority 2009, dated 2014)
Numbering of substitutions follows the chain as printed. Names and notes keep the numbering of the source.

What was measured:
5HT2C receptor [1] = assay: Thermostability of 5HT2C receptor bound to agonist SCH23390; format: physicochemical, human
Procedure: An alanine scan has been carried out on the 5HT2C receptor in the presence of the agonist SCH23390 in order to stabilise the agonist conformation. Similar to A2A, it appears that mutating L2.46 (L95 in 5HT2C) to alanine confers significant stability on this receptor increasing the Tm of the receptor by 5.4° C. (FIG. 7). It is notable that in addition to L95, mutating the nearby M93 (two residues away from L2.46) to alanine also confers stability to the agonist bound receptor, resulting in an increase of 2.9° C.
(§1) A2AR-(2-316) expression was carried out by using the pRG/III-hs-MBP E. coli expression vector and DH5α cells. Cells were grown at 37° C. in 2 L flasks containing 500 mL of 2×TY medium supplemented with Ampicillin (100 μg/mL) and glucose (0.2% w/v). At OD600≈0.7, IPTG and theophylline were added at final concentrations respectively of 0.5 mM and 100 μM, and the temperature was reduced to 20° C. After 22 to 24 hours, cells were harvested in aliquots of 14 mL, centrifuged for 30 min and stored at −20° C. Both 5HT2C and M4 receptors were transiently expressed in HEK293T cells using GeneJuice transfection reagent used according to the manufacturers guidelines.
(§2) 5HT2C receptor was solubilised from transiently transfected mammalian cells in 50 mM Hepes pH7.4, 100 mM KCl, 0.5% DDM (0.1% CHS/0.6% CHAPS was added to cells for SCH23390 agonist assay). Tm analysis was performed directly on the soluble lysate. The Tm was determined by incubating 108 μl of the lysate with [N^6-methyl-^3H]Mesulergine radioligand at a final concentration of 17 nM or 9 nM [^3H]SCH23390 for one hour at 4° C. The six ligand incubations are then incubated at six different temperatures from 25° C. to 55° C., for thirty minutes. Receptor bound and free radioligand were separated using a 96-well plate gel filtration assay.
5HT2C receptor was solubilised from transiently transfected mammalian cells about 40 hours post transfection, in 50 mM Hepes pH7.4/100 mM KCl/0.5% DDM/(0.1% CHS/0.6% CHAPS was added to cells for SCH23390 agonist assay) and protease inhibitor. Cell lysates were left at 4° C. on a rotator and then cleared by centrifugation at 13,200 rpm for 20 minutes at 4° C. Thermostability analysis was performed directly on the soluble lysate. The Tm was determined by incubating 108 μl of the lysate with [N^6-methyl-^3H]Mesulergine radioligand at a final concentration of 17 nM or 9 nM [^3H]SCH23390 for one hour at 4° C. The six ligand incubations are then incubated at six different temperatures from 25° C. to 55° C., for thirty minutes. Receptor bound and free radioligand were separated using G25 Sephadex spin columns.

5HT2C receptor [2] = target: T1, 5HT2C receptor (Homo sapiens, UniProt P28335, L95A); assay: Thermostability of 5HT2C receptor bound to antagonist mesulergine; format: physicochemical; conditions: antagonist bound 5HT2C, data not shown
T1 construct: made in house
T1 sequence (P28335 33-458 L95A): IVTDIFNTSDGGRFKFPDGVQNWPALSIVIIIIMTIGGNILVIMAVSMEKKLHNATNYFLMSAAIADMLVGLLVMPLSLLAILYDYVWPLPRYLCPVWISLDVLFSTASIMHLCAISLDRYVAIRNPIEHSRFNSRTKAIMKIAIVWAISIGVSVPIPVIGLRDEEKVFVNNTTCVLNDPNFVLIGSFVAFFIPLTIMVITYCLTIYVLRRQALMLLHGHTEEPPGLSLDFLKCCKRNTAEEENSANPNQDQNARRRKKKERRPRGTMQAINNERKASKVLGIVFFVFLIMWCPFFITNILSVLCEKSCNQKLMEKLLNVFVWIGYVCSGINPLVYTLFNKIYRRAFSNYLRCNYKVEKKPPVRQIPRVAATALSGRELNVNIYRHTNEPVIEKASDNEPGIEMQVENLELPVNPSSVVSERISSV
Procedure: as §1, §2

M4 muscarinic receptor [3] = target: T2, M4 muscarinic receptor (Homo sapiens, UniProt P08173, L74A); assay: Thermostability of M4 muscarinic receptor bound to antagonist NMS; format: physicochemical; conditions: antagonist NMS bound, data not shown
T2 construct: made in house; host or cells: HEK293T cells, transient
T2 sequence (P08173 1-479 L74A): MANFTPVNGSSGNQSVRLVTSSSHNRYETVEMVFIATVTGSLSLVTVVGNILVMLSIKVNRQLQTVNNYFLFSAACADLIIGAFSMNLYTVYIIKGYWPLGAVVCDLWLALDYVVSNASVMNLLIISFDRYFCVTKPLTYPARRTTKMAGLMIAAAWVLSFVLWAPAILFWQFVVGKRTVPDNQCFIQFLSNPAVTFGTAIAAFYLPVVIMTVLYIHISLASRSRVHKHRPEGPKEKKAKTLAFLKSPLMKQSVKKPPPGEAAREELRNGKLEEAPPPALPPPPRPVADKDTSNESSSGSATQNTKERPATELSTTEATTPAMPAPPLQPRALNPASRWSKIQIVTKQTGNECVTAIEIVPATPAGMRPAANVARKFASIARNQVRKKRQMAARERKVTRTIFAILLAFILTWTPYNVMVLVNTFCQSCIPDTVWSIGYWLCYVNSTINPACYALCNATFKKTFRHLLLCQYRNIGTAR
Procedure: (§3) In order to stabilise the M4 muscarinic receptors in antagonist conformation, a systematic alanine-scan was performed to identify mutations that stabilise receptors bound to the muscarinic antagonist, NMS. […] However, L71A (three residues N-terminal of the L2.46) was identified as a stabilising mutation. This mutation increases the Tm of this receptor by about 2° C. (FIG. 8a).
as §1
(§4) Transiently transfected mammalian cells expressing M4 were harvested about 40 hours post transfection and the receptors were solubilised in 50 mM Tris pH 7.5/250 mM NaCl/1% DDM/EDTA free protease inhibitor mix for 1 hour rotating at 4° C. The solubilised lysate was then cleared by centrifugation at 13000 rpm for 15 minutes at 4° C. The solubilised receptors were then purified on Ni-NTA beads and eluted with 100 mM histidine. The eluted receptor was used in radioligand binding assay. Thermostability of M4 was measured using 25 μL of purified receptor mixed with 95 μL of 12 nM [^3H]-NMS (final concentration of 10 nM). The sample was incubated for 60 min at 4° C., then 30 min at the specified temperature and then 30 min at 4° C. Receptor bound and free radioligand were separated using a 96-well plate gel filtration assay.

M4 muscarinic receptor [4] = assay: as above; format: physicochemical, human; conditions: bound to antagonist NMS
Procedure: as §3, §1, §4

M4 muscarinic receptor [5] = target: T3, M4 muscarinic receptor (Homo sapiens, UniProt P08173, L71A); assay: as above; format: physicochemical; conditions: antagonist NMS bound, versus parent M4
T3 construct: made in house; host or cells: HEK293T cells, transient
T3 sequence (P08173 1-479 L71A): T2 sequence (P08173 1-479 L74A) with L71A, A74L
Procedure: as §3, §1, §4

5HT2C receptor [6] = target: T4, 5HT2C receptor (Homo sapiens, UniProt P28335, S94A); assay: Thermostability of 5HT2C receptor bound to antagonist mesulergine; format: physicochemical; conditions: antagonist bound, versus parent 5HT2C
T4 construct: made in house
T4 sequence (P28335 33-458 S94A): T1 sequence (P28335 33-458 L95A) with S62A, A63L
Procedure: as §1, §2

5HT2C receptor [7] = assay: as above; format: physicochemical, human; conditions: bound to antagonist (mesulergine)
Procedure: as §1, §2

A2A receptor = target: T5, A2A receptor (Homo sapiens, UniProt P29274, N284A); assay: Two point thermostability measurement, NECA binding to A2A alanine scan mutants in DDM; format: physicochemical; conditions: 4° C. versus destabilising temperature such as 30° C.
T5 construct: A2AR-(2-316) expression was carried out by using the pRG/III-hs-MBP E. coli expression vector; MBP (named only in the vector name); made in house
Procedure: In the A2A agonist-bound study the effect of mutations from the alanine scan were determined initially by two point thermostability measurements. In these experiments, the wild type receptors and receptors containing single mutants were solubilised in the detergent DDM and the amount of NECA binding retained at 4° C. and at a destabilising temperature such as 30° C. was determined. A>10% increase in agonist binding to the mutant receptor compared to the wild type receptor at the destabilising temperature is considered to be significant and is indicative of an increase in thermostability.

B1: L95A: 5HT2C receptor mutant, L2.46 (L95 in 5HT2C) to alanine (protein, UniProt P28335 33-458, looked up, variant L95A)
5-hydroxytryptamine receptor …: T1 sequence (P28335 33-458 L95A)
increase of Tm (5HT2C receptor [1]; agonist SCH23390 bound, versus parent 5HT2C): 5.4 °C
Tm (5HT2C receptor [1]; bound to agonist SCH23390): 48.8 °C
effect on thermal stability (5HT2C receptor [2]): did not confer any stability

B2: M4 L2.46: M4 muscarinic receptor with L2.46 residue mutated to alanine (protein, UniProt P08173 1-479, looked up, variant L74A)
Muscarinic acetylcholine …: T2 sequence (P08173 1-479 L74A)
effect on thermal stability (M4 muscarinic receptor [3]): does not change the thermal stability of this receptor significantly

B3: L71A: M4 muscarinic receptor mutant L71A, three residues N-terminal of the L2.46 (protein, UniProt P08173 1-479, looked up, variant L71A)
Muscarinic acetylcholine …: T2 sequence (P08173 1-479 L74A) with L71A, A74L
Tm (M4 muscarinic receptor [4]): 36.0 °C
increase of Tm (M4 muscarinic receptor [5]): about 2 °C

B4: S94A: 5HT2C receptor mutant, S94 to alanine (protein, UniProt P28335 33-458, looked up, variant S94A)
5-hydroxytryptamine receptor …: T1 sequence (P28335 33-458 L95A) with S62A, A63L
increase of Tm (5HT2C receptor [6]): 11.76 °C
Tm (5HT2C receptor [7]): 48.9 °C

B5: N284: adenosine A2A receptor alanine scan mutant of Asparagine 284 (protein, listed as Homo sapiens)
chain: MPIMGSSVYITVELAIAVLAILGNVLVCWAVWLNSNLQNVTNYFVVSLAAADIAVGVLAIPFAITISTGFCAACHGCLFIACFVLVLTQSSIFSLLAIAIDRYIAIRIPLRYNGLVTGTRAKGIIAICWVLSFAIGLTPMLGWNNCGQPKEGKNHSQGCGEGQVACLFEDVVPMNYMVYFNFFACVLVPLLLMLGVYLRIFLAARRQLKQMESQPLPGERARSTLQKEVHAAKSLAIIVGLFALCWLPLHIINCFTFFCPDCSHAPLWLMYLAIVLSHTNSVVAPFIYAYRIREFRQTFRKIIRSHVLRQQEPFKAAGTSARVLAAHGSDGEQVSLRLNGHPPGVWANGSAPHPERRPNGYALGLVSGGSAQESQGNTGLPDVELLSHELKGVCPEPPGLDDPLAQDGAGVS
thermostability (agonist binding at the destabilising temperature compared to wild type) (A2A receptor): increased thermostability
